Patent publication US20230235012A1 (ALPINE IMMUNE SCIENCES, published 2023)
Values belong to the binder of their own block, whether it stands above or below them.

Assays:
[1] = molecular target: T1, human CD28, full-length, expressed on transfected Expi293 cells (human, UniProt P10747 19-220); experiment: flow cytometry, 100 nM, Expi293 cells with human CD28
T1 construct: whole, on cells

[2] = molecular target: T2, human CTLA-4, full-length, expressed on transfected Expi293 cells (human, UniProt P16410 36-223); experiment: flow cytometry, 100 nM, Expi293 cells with human CTLA-4
T2 construct: whole, on cells
T2 sequence (P16410 36-223): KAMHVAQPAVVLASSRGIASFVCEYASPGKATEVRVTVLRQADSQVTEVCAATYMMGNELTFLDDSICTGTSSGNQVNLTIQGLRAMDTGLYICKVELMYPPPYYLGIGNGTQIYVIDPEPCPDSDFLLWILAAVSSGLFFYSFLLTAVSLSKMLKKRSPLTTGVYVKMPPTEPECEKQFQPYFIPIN

B1: variant ICOSL IgV-Fc fusion N52A/N57H/Q100S (Fc fusion)
chain: DTQEKEVRAMVGSDVELSCACPEGSRFDLNDVYVYWQTSESKTVVTYHIPQASSLEHVDSRYRNRALMSPAGMLRGDFSLRLFNVTPQDEQKFHCLVLSSSLGFQEVLSVEVTLHVAANFSVGSGGGGSEPKSSDKTHTCPPCPAPEAEGAPSVFLFPPKPKDTLMISRTPEVTCVVVDVSHEDPEVKFNWYVDGVEVHNAKTKPREEQYNSTYRVVSVLTVLHQDWLNGKEYKCKVSNKALPAPIEKTISKAKGQPREPQVYTLPPSREEMTKNQVSLTCLVKGFYPSDIAVEWESNGQPENNYKTTPPVLDSDGSFFLYSKLTVDKSRWQQGNVFSCSVMHEALHNHYTQKSLSLSPG
- MFI [1]: 159000 MFI
- MFI [2]: 321000 MFI

B3: variant ICOSL IgV-Fc fusion N52G/N57P/Q100D (Fc fusion)
chain: DTQEKEVRAMVGSDVELSCACPEGSRFDLNDVYVYWQTSESKTVVTYHIPQGSSLEPVDSRYRNRALMSPAGMLRGDFSLRLFNVTPQDEQKFHCLVLSDSLGFQEVLSVEVTLHVAANFSVGSGGGGSEPKSSDKTHTCPPCPAPEAEGAPSVFLFPPKPKDTLMISRTPEVTCVVVDVSHEDPEVKFNWYVDGVEVHNAKTKPREEQYNSTYRVVSVLTVLHQDWLNGKEYKCKVSNKALPAPIEKTISKAKGQPREPQVYTLPPSREEMTKNQVSLTCLVKGFYPSDIAVEWESNGQPENNYKTTPPVLDSDGSFFLYSKLTVDKSRWQQGNVFSCSVMHEALHNHYTQKSLSLSPG
- MFI [1]: 5720 MFI
- MFI [2]: 10200 MFI

B6: variant ICOSL IgV-Fc fusion N52D/N57A/Q100A (Fc fusion)
chain: DTQEKEVRAMVGSDVELSCACPEGSRFDLNDVYVYWQTSESKTVVTYHIPQDSSLEAVDSRYRNRALMSPAGMLRGDFSLRLFNVTPQDEQKFHCLVLSASLGFQEVLSVEVTLHVAANFSVGSGGGGSEPKSSDKTHTCPPCPAPEAEGAPSVFLFPPKPKDTLMISRTPEVTCVVVDVSHEDPEVKFNWYVDGVEVHNAKTKPREEQYNSTYRVVSVLTVLHQDWLNGKEYKCKVSNKALPAPIEKTISKAKGQPREPQVYTLPPSREEMTKNQVSLTCLVKGFYPSDIAVEWESNGQPENNYKTTPPVLDSDGSFFLYSKLTVDKSRWQQGNVFSCSVMHEALHNHYTQKSLSLSPG
- MFI [1]: 138000 MFI
- MFI [2]: 340000 MFI

B10: variant ICOSL IgV-Fc fusion N52D/Q100S (Fc fusion)
chain: DTQEKEVRAMVGSDVELSCACPEGSRFDLNDVYVYWQTSESKTVVTYHIPQDSSLENVDSRYRNRALMSPAGMLRGDFSLRLFNVTPQDEQKFHCLVLSSSLGFQEVLSVEVTLHVAANFSVGSGGGGSEPKSSDKTHTCPPCPAPEAEGAPSVFLFPPKPKDTLMISRTPEVTCVVVDVSHEDPEVKFNWYVDGVEVHNAKTKPREEQYNSTYRVVSVLTVLHQDWLNGKEYKCKVSNKALPAPIEKTISKAKGQPREPQVYTLPPSREEMTKNQVSLTCLVKGFYPSDIAVEWESNGQPENNYKTTPPVLDSDGSFFLYSKLTVDKSRWQQGNVFSCSVMHEALHNHYTQKSLSLSPG
- MFI [1]: 95700 MFI
- MFI [2]: 333000 MFI

The remaining lines, values ahead:

- MFI [1]: 21000 MFI
B2: variant ICOSL IgV-Fc fusion N52P/N57P (Fc fusion)
chain: DTQEKEVRAMVGSDVELSCACPEGSRFDLNDVYVYWQTSESKTVVTYHIPQPSSLEPVDSRYRNRALMSPAGMLRGDFSLRLFNVTPQDEQKFHCLVLSQSLGFQEVLSVEVTLHVAANFSVGSGGGGSEPKSSDKTHTCPPCPAPEAEGAPSVFLFPPKPKDTLMISRTPEVTCVVVDVSHEDPEVKFNWYVDGVEVHNAKTKPREEQYNSTYRVVSVLTVLHQDWLNGKEYKCKVSNKALPAPIEKTISKAKGQPREPQVYTLPPSREEMTKNQVSLTCLVKGFYPSDIAVEWESNGQPENNYKTTPPVLDSDGSFFLYSKLTVDKSRWQQGNVFSCSVMHEALHNHYTQKSLSLSPG

- MFI [1]: 154000 MFI
- MFI [2]: 504000 MFI
B4: variant ICOSL IgV-Fc fusion N52R/N57F/Q100P (Fc fusion)
chain: DTQEKEVRAMVGSDVELSCACPEGSRFDLNDVYVYWQTSESKTVVTYHIPQRSSLEFVDSRYRNRALMSPAGMLRGDFSLRLFNVTPQDEQKFHCLVLSPSLGFQEVLSVEVTLHVAANFSVGSGGGGSEPKSSDKTHTCPPCPAPEAEGAPSVFLFPPKPKDTLMISRTPEVTCVVVDVSHEDPEVKFNWYVDGVEVHNAKTKPREEQYNSTYRVVSVLTVLHQDWLNGKEYKCKVSNKALPAPIEKTISKAKGQPREPQVYTLPPSREEMTKNQVSLTCLVKGFYPSDIAVEWESNGQPENNYKTTPPVLDSDGSFFLYSKLTVDKSRWQQGNVFSCSVMHEALHNHYTQKSLSLSPG

- MFI [1]: 133000 MFI
- MFI [2]: 502000 MFI
B5: variant ICOSL IgV-Fc fusion N52R/N57Y/Q100P (Fc fusion)
chain: DTQEKEVRAMVGSDVELSCACPEGSRFDLNDVYVYWQTSESKTVVTYHIPQRSSLEYVDSRYRNRALMSPAGMLRGDFSLRLFNVTPQDEQKFHCLVLSPSLGFQEVLSVEVTLHVAANFSVGSGGGGSEPKSSDKTHTCPPCPAPEAEGAPSVFLFPPKPKDTLMISRTPEVTCVVVDVSHEDPEVKFNWYVDGVEVHNAKTKPREEQYNSTYRVVSVLTVLHQDWLNGKEYKCKVSNKALPAPIEKTISKAKGQPREPQVYTLPPSREEMTKNQVSLTCLVKGFYPSDIAVEWESNGQPENNYKTTPPVLDSDGSFFLYSKLTVDKSRWQQGNVFSCSVMHEALHNHYTQKSLSLSPG

- MFI [1]: 185000 MFI
- MFI [2]: 464000 MFI
B7: variant ICOSL IgV-Fc fusion N52R/N57F/Q100R (Fc fusion)
chain: DTQEKEVRAMVGSDVELSCACPEGSRFDLNDVYVYWQTSESKTVVTYHIPQRSSLEFVDSRYRNRALMSPAGMLRGDFSLRLFNVTPQDEQKFHCLVLSRSLGFQEVLSVEVTLHVAANFSVGSGGGGSEPKSSDKTHTCPPCPAPEAEGAPSVFLFPPKPKDTLMISRTPEVTCVVVDVSHEDPEVKFNWYVDGVEVHNAKTKPREEQYNSTYRVVSVLTVLHQDWLNGKEYKCKVSNKALPAPIEKTISKAKGQPREPQVYTLPPSREEMTKNQVSLTCLVKGFYPSDIAVEWESNGQPENNYKTTPPVLDSDGSFFLYSKLTVDKSRWQQGNVFSCSVMHEALHNHYTQKSLSLSPG

- MFI [1]: 161000 MFI
- MFI [2]: 233000 MFI
B8: variant ICOSL IgV-Fc fusion N52R/N57F/Q100N (Fc fusion)
chain: DTQEKEVRAMVGSDVELSCACPEGSRFDLNDVYVYWQTSESKTVVTYHIPQRSSLEFVDSRYRNRALMSPAGMLRGDFSLRLFNVTPQDEQKFHCLVLSNSLGFQEVLSVEVTLHVAANFSVGSGGGGSEPKSSDKTHTCPPCPAPEAEGAPSVFLFPPKPKDTLMISRTPEVTCVVVDVSHEDPEVKFNWYVDGVEVHNAKTKPREEQYNSTYRVVSVLTVLHQDWLNGKEYKCKVSNKALPAPIEKTISKAKGQPREPQVYTLPPSREEMTKNQVSLTCLVKGFYPSDIAVEWESNGQPENNYKTTPPVLDSDGSFFLYSKLTVDKSRWQQGNVFSCSVMHEALHNHYTQKSLSLSPG

- MFI [1]: 137000 MFI
- MFI [2]: 318000 MFI
B9: variant ICOSL IgV-Fc fusion N52R/N57W (Fc fusion)
chain: DTQEKEVRAMVGSDVELSCACPEGSRFDLNDVYVYWQTSESKTVVTYHIPQRSSLEWVDSRYRNRALMSPAGMLRGDFSLRLFNVTPQDEQKFHCLVLSQSLGFQEVLSVEVTLHVAANFSVGSGGGGSEPKSSDKTHTCPPCPAPEAEGAPSVFLFPPKPKDTLMISRTPEVTCVVVDVSHEDPEVKFNWYVDGVEVHNAKTKPREEQYNSTYRVVSVLTVLHQDWLNGKEYKCKVSNKALPAPIEKTISKAKGQPREPQVYTLPPSREEMTKNQVSLTCLVKGFYPSDIAVEWESNGQPENNYKTTPPVLDSDGSFFLYSKLTVDKSRWQQGNVFSCSVMHEALHNHYTQKSLSLSPG
